In publication doi:10.1101/2024.03.15.585201 (bioRxiv, 2024):

Target: the molecule itself
Assay: cryo-EM structure

B1: BmrA E504A mutant (natural protein)
chain: MPTKKQKSKSKLKPFFALVRRTNPSYGKLAFALALSVVTTLVSLLIPLLTKQLVDGFSMSNLSGTQIGLIALVFFVQAGLSAYATYALNYNGQKIISGLRELLWKKLIKLPVSYFDTNASGETVSRVTNDTMVVKELITTHISGFITGIISVIGSLTILFIMNWKLTLLVLVVVPLAALILVPIGRKMFSISRETQDETARFTGLLNQILPEIRLVKASNAEDVEYGRGKMGISSLFKLGVREAKVQSLVGPLISLVLMAALVAVIGYGGMQVSSGELTAGALVAFILYLFQIIMPMGQITTFFTQLQKSIGATERMIEILAEEEEDTVTGKQIENAHLPIQLDRVSFGYKPDQLILKEVSAVIEAGKVTAIVGPSGGGKTTLFKLLERFYSPTAGTIRLGDEPVDTYSLESWREHIGYVSQESPLMSGTIRENICYGLERDVTDAEIEKAAEMAYALNFIKELPNQFDTEVGERGIMLSGGQRQRIAIARALLRNPSILMLDAATSSLDSQSEKSVQQALEVLMEGRTTIVIAHRLSTVVDADQLLFVEKGEITGRGTHHELMASHGLYRDFAEQQLKMNADLENKAG
  stoichiometry N: 2
